The values that follow come from patent US20240343791A1 (YUANPU BIOTECHNOLOGY WUHAN, published 2024).

This test concerns the target T1, human VEGFC (Cat. No. Z03286, Genscript) (human, UniProt P49767 112-227, limits assumed).
T1 construct: Bought protein; also called VC
T1 sequence (looked up): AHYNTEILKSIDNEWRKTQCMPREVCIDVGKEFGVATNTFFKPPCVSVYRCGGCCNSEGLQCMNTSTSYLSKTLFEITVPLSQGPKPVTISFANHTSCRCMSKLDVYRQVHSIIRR
Put plainly: SPR (Biacore), protein captured on protein A chip, VEGFC as analyte, 25 C. On the procedure: Human VEGFC (Cat. No.: Z03286-10 μg, Genscript, China) solutions with concentrations of 10, 5, 2.5, 1.25, 0.63, 0.31, 0.16, 0.08, and 0 (blank) nM were produced by diluted into a running buffer. Each analysis cycle comprises: (1) capturing the bispecific protein on flow pool 2 (Fc2), (2) injecting the VEGFC solution onto flow cells 1 and 2 (Fc1 and Fc2) at a rate of 30 μL/minute (for 120 seconds), (3) allowing 1×HBS-EP+buffer to flow at 30 μL/minute through the chip for 360 seconds to monitor the dissociation phase, (4) injecting a 10 mM glycine hydrochloride buffer, pH 1.5, to allow surface regeneration of the chip. The data was processed by Biacore™ Insight Evaluation software, using standard double reference and fitting with a 1:1 binding model, to determine the binding rate (kₐ) and dissociation rate (kd).
A general note: In SPR one partner is held on a chip, and binding of the other changes the refractive index at the surface.

B1: OPT-302 (other, not shown: a dimerising Fc or GST; small tags and cut ends)
chain: YSMTPPTLNITEESHVIDTGDSLSISCRGQHPLEWAWPGAQEAPATGDKDSEDTGVVRDCEGTDARPYCKVLLLHEVHAQDTGSYVCYYKYIKARIEGTTAASSYVFVRDFEQPFINKPDTLLVNRKDAMWVPCLVSIPGLNVTLRSQSSVLWPDGQEVVWDDRRGMLVSTPLLHDALYLQCETTWGDQDFLSNPFLVHITGNELYDIQLLPRKSLELLVGEKLVLNCTVWAEFNSGVTFDWDYPGKQAERGKWVPERRSQQTHTELSSILTIHNVSQHDLGSYVCKANNGIQRFRESTEVIVHE
notes: captured on protein A chip
On to B1, for which binding was put at a Kd of 562 pM, the koff amounted to 0.0033 s⁻¹ and the kon stood at 5.87e+06 M⁻¹ s⁻¹.

What is called Kd is the constant that tells how readily two partners part at equilibrium. A low value points to a tighter complex. As usually defined, the koff is the rate constant with which the complex falls apart. A lower koff goes with a long-lived complex. The term kon denotes the rate constant with which the complex forms. Low values mean slow association, high ones fast association.
